The source of these data is patent US10562947B2, “Compositions and methods for preventing or treating diseases, conditions or processes characterized by aberrant fibroblast proliferation and extracellular matrix deposition” (MOERAE MATRIX, INC., priority 2011, dated 2020).

Test in all cases: Kinase Profiling Assay
Holding throughout (type): biochemical
Conditions in all cases: 100 μM peptide

For one experiment, the target named is ACK1(h) (Homo sapiens, UniProt Q07912). The method, boiled down: (§1)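 Each kinase in a 266-member human panel is assayed, in duplicate, for activity in the presence of MK2 inhibitory peptides to gauge specificity.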
Sequence of ACK1(h) (Q07912 whole entry): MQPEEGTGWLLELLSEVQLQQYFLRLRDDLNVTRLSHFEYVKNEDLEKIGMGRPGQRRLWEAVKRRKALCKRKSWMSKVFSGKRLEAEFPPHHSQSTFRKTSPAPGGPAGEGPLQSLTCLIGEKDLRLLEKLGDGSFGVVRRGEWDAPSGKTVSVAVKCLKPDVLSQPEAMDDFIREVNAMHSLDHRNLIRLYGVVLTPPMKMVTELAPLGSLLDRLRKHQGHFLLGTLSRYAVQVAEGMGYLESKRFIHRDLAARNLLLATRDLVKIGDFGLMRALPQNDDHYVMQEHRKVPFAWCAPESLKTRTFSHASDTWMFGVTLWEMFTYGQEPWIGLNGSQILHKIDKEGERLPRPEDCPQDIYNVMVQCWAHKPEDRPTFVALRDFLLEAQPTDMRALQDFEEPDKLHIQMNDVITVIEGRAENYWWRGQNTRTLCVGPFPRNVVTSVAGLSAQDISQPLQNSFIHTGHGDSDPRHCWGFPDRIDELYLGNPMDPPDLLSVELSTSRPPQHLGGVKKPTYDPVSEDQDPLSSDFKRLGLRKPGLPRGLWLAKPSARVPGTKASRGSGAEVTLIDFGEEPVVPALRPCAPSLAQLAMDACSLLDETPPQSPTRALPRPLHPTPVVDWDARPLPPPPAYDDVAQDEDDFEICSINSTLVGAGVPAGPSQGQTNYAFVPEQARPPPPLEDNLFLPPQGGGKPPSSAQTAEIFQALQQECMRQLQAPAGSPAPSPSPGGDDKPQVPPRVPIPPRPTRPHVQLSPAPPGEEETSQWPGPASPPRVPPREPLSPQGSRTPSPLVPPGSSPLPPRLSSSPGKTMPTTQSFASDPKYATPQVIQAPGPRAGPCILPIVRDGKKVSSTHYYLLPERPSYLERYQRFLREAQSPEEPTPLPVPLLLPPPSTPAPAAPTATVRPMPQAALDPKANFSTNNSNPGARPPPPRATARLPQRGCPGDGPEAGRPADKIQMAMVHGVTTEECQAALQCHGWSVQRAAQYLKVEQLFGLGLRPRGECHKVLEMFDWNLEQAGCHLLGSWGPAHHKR
A further experiment addresses Arg(h) (Homo sapiens, UniProt P42684). The method, boiled down: as §1
Another experiment deals with T1, CaMKIV(h) (Homo sapiens, UniProt Q16566).
T1 sequence (Q16566 1-473): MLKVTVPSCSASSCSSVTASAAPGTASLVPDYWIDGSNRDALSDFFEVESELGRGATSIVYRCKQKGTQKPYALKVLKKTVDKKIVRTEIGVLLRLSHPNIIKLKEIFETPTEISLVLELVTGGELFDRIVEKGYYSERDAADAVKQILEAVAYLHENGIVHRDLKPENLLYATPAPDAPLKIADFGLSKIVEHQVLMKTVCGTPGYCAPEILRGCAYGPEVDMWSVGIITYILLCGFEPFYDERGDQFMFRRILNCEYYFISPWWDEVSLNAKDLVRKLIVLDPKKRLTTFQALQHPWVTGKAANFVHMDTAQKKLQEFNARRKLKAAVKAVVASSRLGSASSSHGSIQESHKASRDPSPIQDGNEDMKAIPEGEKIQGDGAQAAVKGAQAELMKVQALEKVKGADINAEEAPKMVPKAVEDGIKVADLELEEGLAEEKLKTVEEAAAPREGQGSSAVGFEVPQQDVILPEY
The method, boiled down:
as §1

In a further experiment the target is MLK1(h) (Homo sapiens, UniProt P80192). The gist of the method: as §1
Sequence of MLK1(h) (P80192 whole entry): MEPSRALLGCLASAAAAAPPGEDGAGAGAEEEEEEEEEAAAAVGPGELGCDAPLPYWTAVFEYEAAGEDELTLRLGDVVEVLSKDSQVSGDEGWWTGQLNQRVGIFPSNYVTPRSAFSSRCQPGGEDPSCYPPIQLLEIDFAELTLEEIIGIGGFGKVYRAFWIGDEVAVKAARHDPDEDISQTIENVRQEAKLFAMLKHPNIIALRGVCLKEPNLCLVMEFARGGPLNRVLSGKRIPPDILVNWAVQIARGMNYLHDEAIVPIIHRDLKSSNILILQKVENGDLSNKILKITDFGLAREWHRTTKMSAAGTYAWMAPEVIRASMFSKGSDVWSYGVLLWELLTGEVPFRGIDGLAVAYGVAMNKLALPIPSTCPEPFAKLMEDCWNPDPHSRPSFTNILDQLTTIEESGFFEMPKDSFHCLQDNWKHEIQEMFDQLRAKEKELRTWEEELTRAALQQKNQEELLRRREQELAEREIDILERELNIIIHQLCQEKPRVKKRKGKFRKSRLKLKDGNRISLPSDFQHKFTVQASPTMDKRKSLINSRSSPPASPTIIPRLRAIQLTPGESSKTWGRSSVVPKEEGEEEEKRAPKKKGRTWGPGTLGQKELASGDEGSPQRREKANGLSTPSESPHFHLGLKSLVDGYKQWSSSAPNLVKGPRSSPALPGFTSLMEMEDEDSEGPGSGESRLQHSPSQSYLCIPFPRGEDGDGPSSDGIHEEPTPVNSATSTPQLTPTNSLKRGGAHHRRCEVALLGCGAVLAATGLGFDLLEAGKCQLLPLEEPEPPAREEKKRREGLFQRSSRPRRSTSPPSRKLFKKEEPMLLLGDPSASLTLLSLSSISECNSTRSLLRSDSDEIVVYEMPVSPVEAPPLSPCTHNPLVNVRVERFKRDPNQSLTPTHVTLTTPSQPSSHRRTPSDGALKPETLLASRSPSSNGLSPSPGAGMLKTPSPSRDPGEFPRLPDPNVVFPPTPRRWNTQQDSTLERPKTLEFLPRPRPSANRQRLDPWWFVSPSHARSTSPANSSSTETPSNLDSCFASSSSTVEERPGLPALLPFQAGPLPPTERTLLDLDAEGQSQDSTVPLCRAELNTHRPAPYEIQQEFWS
A further experiment has as its target PDGFRβ(h) (Homo sapiens, UniProt P09619). The gist of the method: as §1
A further experiment has as its target T2, PKCζ(h) (Homo sapiens, UniProt Q05513).
T2 construct: purchased Millipore (IC50 Profiler Express service)
T2 sequence (Q05513 1-592): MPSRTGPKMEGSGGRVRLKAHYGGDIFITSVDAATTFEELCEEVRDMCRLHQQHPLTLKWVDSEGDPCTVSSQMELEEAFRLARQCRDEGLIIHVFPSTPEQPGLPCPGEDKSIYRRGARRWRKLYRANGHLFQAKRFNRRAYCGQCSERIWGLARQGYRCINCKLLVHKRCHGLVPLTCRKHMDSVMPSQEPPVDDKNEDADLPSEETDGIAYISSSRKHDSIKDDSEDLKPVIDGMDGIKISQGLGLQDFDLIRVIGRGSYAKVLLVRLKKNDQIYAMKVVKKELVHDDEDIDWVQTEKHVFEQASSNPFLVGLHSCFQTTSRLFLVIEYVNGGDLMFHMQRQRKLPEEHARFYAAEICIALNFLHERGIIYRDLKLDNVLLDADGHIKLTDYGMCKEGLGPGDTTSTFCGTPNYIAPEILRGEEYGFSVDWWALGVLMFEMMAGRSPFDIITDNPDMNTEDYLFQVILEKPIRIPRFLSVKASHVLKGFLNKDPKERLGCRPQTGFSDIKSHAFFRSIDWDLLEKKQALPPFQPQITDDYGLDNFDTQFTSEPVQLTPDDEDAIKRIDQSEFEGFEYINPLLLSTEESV
The gist of the method: as §1

Another experiment addresses T3, Ros(h) (Homo sapiens, UniProt P08922).
T3 construct: purchased Millipore (IC50 Profiler Express service)
The gist of the method: as §1

In the next experiment the target is T4, Rse(h) (Homo sapiens, UniProt Q06418).
T4 construct: purchased Millipore (IC50 Profiler Express service)
T4 sequence (Q06418 41-890): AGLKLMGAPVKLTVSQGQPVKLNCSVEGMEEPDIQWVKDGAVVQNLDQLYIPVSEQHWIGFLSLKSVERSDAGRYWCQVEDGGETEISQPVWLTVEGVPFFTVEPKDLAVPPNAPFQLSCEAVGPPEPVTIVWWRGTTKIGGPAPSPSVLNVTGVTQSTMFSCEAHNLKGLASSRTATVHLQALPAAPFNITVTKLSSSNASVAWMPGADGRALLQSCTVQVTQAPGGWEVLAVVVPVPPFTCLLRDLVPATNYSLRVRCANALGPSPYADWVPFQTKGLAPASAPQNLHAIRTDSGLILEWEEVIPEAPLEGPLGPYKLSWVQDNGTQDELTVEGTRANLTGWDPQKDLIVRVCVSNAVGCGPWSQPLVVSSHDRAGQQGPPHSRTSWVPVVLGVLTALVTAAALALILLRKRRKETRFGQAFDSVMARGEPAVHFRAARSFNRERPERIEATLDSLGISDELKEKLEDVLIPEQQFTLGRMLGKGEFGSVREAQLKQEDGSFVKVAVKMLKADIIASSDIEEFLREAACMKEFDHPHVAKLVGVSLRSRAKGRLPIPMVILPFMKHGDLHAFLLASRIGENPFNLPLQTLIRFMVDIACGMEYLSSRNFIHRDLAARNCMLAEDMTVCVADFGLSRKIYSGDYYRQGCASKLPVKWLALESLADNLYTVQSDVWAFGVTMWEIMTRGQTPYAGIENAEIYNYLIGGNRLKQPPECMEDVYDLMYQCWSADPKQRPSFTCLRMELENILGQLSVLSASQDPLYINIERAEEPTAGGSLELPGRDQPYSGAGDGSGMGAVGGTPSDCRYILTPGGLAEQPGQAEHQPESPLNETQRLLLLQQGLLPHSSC
The method, boiled down: as §1

The next experiment deals with Src(T341M)(h) (Homo sapiens, UniProt P12931, T341M). The method, boiled down:
as §1

The next experiment concerns the target MAPK2(h) (Homo sapiens, UniProt P28482). The gist of the method: as §1
The target of another experiment is T5, ROCK-I(h) (Homo sapiens, UniProt Q13464).
T5 construct: purchased Millipore (IC50 Profiler Express service)
The method, boiled down: as §1

The target of the next experiment is Rsk3(h) (Homo sapiens, UniProt Q15349). The method, boiled down:
as §1

Sequence of Arg(h) (P42684 whole entry): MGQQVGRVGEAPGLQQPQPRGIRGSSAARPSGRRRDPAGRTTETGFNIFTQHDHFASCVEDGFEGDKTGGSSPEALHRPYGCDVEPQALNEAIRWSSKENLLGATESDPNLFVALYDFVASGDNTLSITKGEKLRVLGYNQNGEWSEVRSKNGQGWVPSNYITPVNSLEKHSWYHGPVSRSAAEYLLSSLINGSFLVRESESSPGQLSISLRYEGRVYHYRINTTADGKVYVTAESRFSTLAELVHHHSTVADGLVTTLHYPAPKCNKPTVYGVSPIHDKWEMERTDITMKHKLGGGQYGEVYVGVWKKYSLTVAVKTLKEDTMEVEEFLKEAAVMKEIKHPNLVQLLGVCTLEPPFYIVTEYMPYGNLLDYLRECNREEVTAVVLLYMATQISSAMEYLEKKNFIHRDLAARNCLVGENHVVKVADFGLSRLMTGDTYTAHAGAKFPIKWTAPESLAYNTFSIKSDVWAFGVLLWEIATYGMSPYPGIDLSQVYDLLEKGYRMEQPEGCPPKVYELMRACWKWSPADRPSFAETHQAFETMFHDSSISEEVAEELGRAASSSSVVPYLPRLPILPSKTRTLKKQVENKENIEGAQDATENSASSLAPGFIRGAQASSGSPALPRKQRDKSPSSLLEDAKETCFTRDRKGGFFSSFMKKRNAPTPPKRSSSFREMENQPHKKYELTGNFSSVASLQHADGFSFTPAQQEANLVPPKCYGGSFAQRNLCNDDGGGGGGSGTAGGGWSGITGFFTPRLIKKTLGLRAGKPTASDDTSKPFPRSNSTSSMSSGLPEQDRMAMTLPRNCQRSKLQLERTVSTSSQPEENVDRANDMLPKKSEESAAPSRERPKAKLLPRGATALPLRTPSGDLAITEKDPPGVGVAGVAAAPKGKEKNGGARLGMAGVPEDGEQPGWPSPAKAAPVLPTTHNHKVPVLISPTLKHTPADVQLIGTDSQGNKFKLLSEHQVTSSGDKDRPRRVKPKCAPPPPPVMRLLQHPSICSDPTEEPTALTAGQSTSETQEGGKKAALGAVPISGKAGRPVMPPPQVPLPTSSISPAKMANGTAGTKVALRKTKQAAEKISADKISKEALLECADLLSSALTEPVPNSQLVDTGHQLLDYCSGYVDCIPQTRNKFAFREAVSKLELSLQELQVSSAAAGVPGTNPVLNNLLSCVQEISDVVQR
Sequence of PDGFRβ(h) (P09619 33-1106): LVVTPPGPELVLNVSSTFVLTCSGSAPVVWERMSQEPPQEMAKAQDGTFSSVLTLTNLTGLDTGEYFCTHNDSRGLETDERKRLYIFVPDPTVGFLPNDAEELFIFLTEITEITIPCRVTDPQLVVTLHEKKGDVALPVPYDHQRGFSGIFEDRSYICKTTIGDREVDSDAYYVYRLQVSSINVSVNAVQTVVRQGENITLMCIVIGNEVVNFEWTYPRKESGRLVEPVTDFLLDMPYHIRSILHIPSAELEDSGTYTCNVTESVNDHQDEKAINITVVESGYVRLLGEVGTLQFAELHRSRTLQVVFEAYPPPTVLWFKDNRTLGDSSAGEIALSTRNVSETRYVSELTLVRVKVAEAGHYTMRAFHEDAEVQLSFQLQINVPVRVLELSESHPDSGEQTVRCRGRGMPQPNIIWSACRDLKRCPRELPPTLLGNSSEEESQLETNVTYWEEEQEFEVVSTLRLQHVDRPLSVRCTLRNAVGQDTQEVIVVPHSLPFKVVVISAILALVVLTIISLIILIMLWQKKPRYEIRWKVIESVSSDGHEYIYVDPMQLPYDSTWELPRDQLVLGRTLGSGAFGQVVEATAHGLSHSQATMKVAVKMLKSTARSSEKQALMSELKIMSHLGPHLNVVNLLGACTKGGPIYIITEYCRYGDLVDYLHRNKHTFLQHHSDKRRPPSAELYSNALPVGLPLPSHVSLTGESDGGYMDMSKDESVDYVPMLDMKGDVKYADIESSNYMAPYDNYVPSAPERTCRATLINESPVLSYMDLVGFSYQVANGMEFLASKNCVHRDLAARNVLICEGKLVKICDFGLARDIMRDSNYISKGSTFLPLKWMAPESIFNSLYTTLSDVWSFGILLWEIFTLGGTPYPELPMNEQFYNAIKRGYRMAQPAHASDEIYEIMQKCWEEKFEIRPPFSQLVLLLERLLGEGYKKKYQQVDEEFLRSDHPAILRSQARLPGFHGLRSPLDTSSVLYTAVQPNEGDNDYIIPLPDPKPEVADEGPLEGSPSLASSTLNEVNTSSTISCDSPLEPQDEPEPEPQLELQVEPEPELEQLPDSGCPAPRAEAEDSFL
Sequence of MAPK2(h) (P28482 whole entry): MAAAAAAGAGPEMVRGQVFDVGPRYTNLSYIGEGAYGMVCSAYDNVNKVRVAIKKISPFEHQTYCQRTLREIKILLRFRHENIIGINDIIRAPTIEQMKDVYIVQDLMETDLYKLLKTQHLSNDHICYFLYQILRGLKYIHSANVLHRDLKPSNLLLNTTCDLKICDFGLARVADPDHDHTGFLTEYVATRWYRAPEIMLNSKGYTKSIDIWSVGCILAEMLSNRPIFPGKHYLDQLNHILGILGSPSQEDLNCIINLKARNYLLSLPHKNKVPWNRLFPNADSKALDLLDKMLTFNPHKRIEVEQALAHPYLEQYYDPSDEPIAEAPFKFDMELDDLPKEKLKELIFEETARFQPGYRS

With “YARAAARQARAKALNRQLGVA (Mammalian) [MMI-0200]”, the “ACK1(h) % activity” value with ACK1(h) was determined as 97%. Further, the “Arg(h) % activity” value with Arg(h) came out at 82%. For the same sequence, the “CaMKIV(h) % activity” value with CaMKIV(h) is on record as 71%. Further, the “MLK1(h) % activity” value with MLK1(h) turned out to be 84%. Also, the “PDGFRβ(h) % activity” value with PDGFRβ(h) came out at 137%. In the experiment with PKCζ(h), the “PKCζ(h) % activity” value is reported as 98%. Further, the “Ros(h) % activity” value with Ros(h) was found to be 86%. For the same sequence, in the experiment with Rse(h), the “Rse(h) % activity” value is on record as 88%. In addition, in the experiment with Src(T341M)(h), the “Src(T341M)(h) % activity” value is recorded as 56%.

In the case of “HRRIKAWLKKIKALARQLGVAA (Mammalian) [MMI-0500]”, in the experiment with ACK1(h), the “ACK1(h) % activity” value was 64%. Further, the “Arg(h) % activity” value in the experiment with Arg(h) is given as 22%. Further, the “CaMKIV(h) % activity” value in the experiment with CaMKIV(h) is −1%. Besides, the “MAPK2(h) % activity” value in the experiment with MAPK2(h) stood at 60%. In the experiment with MLK1(h), the “MLK1(h) % activity” value is recorded as 43%. The “PDGFRβ(h) % activity” value with PDGFRβ(h) is 40%. The “PKCζ(h) % activity” value with PKCζ(h) is 7%. The “ROCK-I(h) % activity” value with ROCK-I(h) was 17%. The “Ros(h) % activity” value with Ros(h) is on record as 150%. Also, in the experiment with Rse(h), the “Rse(h) % activity” value is listed as 63%. For the same sequence, the “Rsk3(h) % activity” value with Rsk3(h) amounted to 23%. Also, the “Src(T341M)(h) % activity” value with Src(T341M)(h) was determined as 59%.

KAFAKLAARLYRKALARQLGVAA [MMI-0400]: in the experiment with ACK1(h), the “ACK1(h) % activity” value came out at 95%. Moreover, in the experiment with Arg(h), the “Arg(h) % activity” value is given as 84%. The “CaMKIV(h) % activity” value in the experiment with CaMKIV(h) was found to be 18%. Also, in the experiment with MAPK2(h), the “MAPK2(h) % activity” value was determined as 93%. In addition, the “MLK1(h) % activity” value with MLK1(h) is given as 33%. Also, the “PDGFRβ(h) % activity” value with PDGFRβ(h) stood at 53%. Also, the “PKCζ(h) % activity” value with PKCζ(h) is 75%. In the experiment with ROCK-I(h), the “ROCK-I(h) % activity” value turned out to be 73%. Besides, in the experiment with Ros(h), the “Ros(h) % activity” value was 99%. Besides, the “Rse(h) % activity” value with Rse(h) amounted to 89%. In addition, the “Rsk3(h) % activity” value in the experiment with Rsk3(h) turned out to be 71%. In addition, in the experiment with Src(T341M)(h), the “Src(T341M)(h) % activity” value is reported as 76%.

For the sequence FAKLAARLYRKALARQLGVAA [MMI-0300], the “Arg(h) % activity” value with Arg(h) was determined as 72%. For the same sequence, in the experiment with CaMKIV(h), the “CaMKIV(h) % activity” value came to 17%. For the same sequence, in the experiment with MAPK2(h), the “MAPK2(h) % activity” value is reported as 98%. The “MLK1(h) % activity” value in the experiment with MLK1(h) is 40%. In the experiment with PDGFRβ(h), the “PDGFRβ(h) % activity” value is reported as 81%. Further, the “PKCζ(h) % activity” value in the experiment with PKCζ(h) came out at 81%. In addition, the “ROCK-I(h) % activity” value in the experiment with ROCK-I(h) amounted to 79%. Moreover, in the experiment with Ros(h), the “Ros(h) % activity” value turned out to be 95%. The “Rse(h) % activity” value in the experiment with Rse(h) worked out at 88%. Besides, the “Rsk3(h) % activity” value in the experiment with Rsk3(h) amounted to 76%. Besides, the “Src(T341M)(h) % activity” value with Src(T341M)(h) was 70%.
